From article PMC5892938, “SARNAclust: Semi-automatic detection of RNA protein binding motifs from immunoprecipitation data” come the findings set out here.

Numbering of substitutions follows the chain as printed.

The chains are these.
B1: consensus (structured_RNA)
RNA: GGUCACGUCUCAAUCAACUCCCAAAGGCUUUUCUCAGAGCCACCCAUCAACAGCUCGCAGUCAAG
B2: consensus (structured_RNA)
RNA: B1 RNA with U29C, U30C, C33U, C35U, A38G
B3: consensus (structured_RNA)
RNA: B1 RNA with U29C, C35A, G37A, A38G
B4: consensus (structured_RNA)
RNA: B1 RNA with U30C, C35A, A38G
B5: consensus (structured_RNA)
RNA: B1 RNA with C28U, U29C, U30C, C35U, A38G, G39A
B6: consensus (structured_RNA)
RNA: B1 RNA with U29C, C35U, G37A, A38G
B7: consensus (structured_RNA)
RNA: B1 RNA with C28U, U29C, U30C, C33U, C35G, A38G, G39A
B8: consensus (structured_RNA)
RNA: B1 RNA with C28U, U29C, C33U, C35A, G37A, A38G
B9: consensus (structured_RNA)
RNA: B1 RNA with U29C, C33U, G37A, A38G
B10: consensus (structured_RNA)
RNA: B1 RNA with C28U, U30C, C33U, G39A
B11: consensus (structured_RNA)
RNA: B1 RNA with C28U, C33U, C35A, G39A
B12: consensus (structured_RNA)
RNA: B1 RNA with U30C, C33U
B13: consensus (structured_RNA)
RNA: B1 RNA with U29C, U30C, C33U, C35G, A38G
B14: consensus (structured_RNA)
RNA: B1 RNA with U30C
B15: consensus (structured_RNA)
RNA: B1 RNA with U30C, C35A
B16: consensus (structured_RNA)
RNA: B1 RNA with C33U, G37A
B17: consensus (structured_RNA)
RNA: B1 RNA with C28U, U29C, U30C, C33U, C35A, A38G
B18: consensus (structured_RNA)
RNA: B1 RNA with C28U, U29C, U30C, C33U, A38G
B19: consensus (structured_RNA)
RNA: B1 RNA with C28U, U29C, C35A, G37A, A38G, G39A
B20: consensus (structured_RNA)
RNA: B1 RNA with C28U, U30C, C33U, C35A, G39A
B21: consensus (structured_RNA)
RNA: B1 RNA with C28U, U29C, C33U, C35U, A38G
B22: consensus (structured_RNA)
RNA: B1 RNA with G37A
B23: consensus (structured_RNA)
RNA: B1 RNA with U29C, C33U, C35G, G37A, A38G
B24: consensus (structured_RNA)
RNA: B1 RNA with C28U, C33U, G39A
B25: consensus (structured_RNA)
RNA: B1 RNA with C28U, U29C, U30C, C35A, A38G
B26: consensus (structured_RNA)
RNA: B1 RNA with C35U, A38G
B27: consensus (structured_RNA)
RNA: B1 RNA with C28U, U29C, U30C, C33U, C35U, A38G, G39A
B28: consensus (structured_RNA)
RNA: B1 RNA with C28U, U29C, C35U, G37A, A38G, G39A
B29: consensus (structured_RNA)
RNA: B1 RNA with C33U, C35A, G37A, A38G
B30: consensus (structured_RNA)
RNA: B1 RNA with U30C, C35U
B31: consensus (structured_RNA)
RNA: B1 RNA with U30C, C33U, C35A, A38G
B32: consensus (structured_RNA)
RNA: B1 RNA with C28U, U29C, G37A, A38G, G39A
B33: consensus (structured_RNA)
RNA: B1 RNA with U29C, U30C, C33U, C35A, A38G
B34: consensus (structured_RNA)
RNA: B1 RNA with C28U, U29C, U30C, C35A, A38G, G39A
B35: consensus (structured_RNA)
RNA: B1 RNA with C33U, C35U
B36: consensus (structured_RNA)
RNA: B1 RNA with C28U, U29C, U30C, A38G
B37: consensus (structured_RNA)
RNA: B1 RNA with U30C, C33U, C35U
B38: consensus (structured_RNA)
RNA: B1 RNA with C28U, C35A, G39A
B39: consensus (structured_RNA)
RNA: B1 RNA with C28U, U29C, C35A, G37A, A38G
B40: consensus (structured_RNA)
RNA: B1 RNA with C28U, U29C, A38G
B41: consensus (structured_RNA)
RNA: B1 RNA with U29C, C35G, G37A, A38G
B42: consensus (structured_RNA)
RNA: B1 RNA with U29C, U30C, C35G, A38G
B43: consensus (structured_RNA)
RNA: B1 RNA with C28U, U29C, C33U, G37A, A38G
B44: consensus (structured_RNA)
RNA: B1 RNA with C28U, C35A, G37A, G39A
B45: consensus (structured_RNA)
RNA: B1 RNA with C28U, U29C, C33U, C35U, G37A, A38G, G39A
B46: consensus (structured_RNA)
RNA: B1 RNA with C33U, C35A, G37A
B47: consensus (structured_RNA)
RNA: B1 RNA with C28U, C33U
B48: consensus (structured_RNA)
RNA: B1 RNA with C28U, U29C, C33U, C35A, G37A, A38G, G39A
B49: consensus (structured_RNA)
RNA: B1 RNA with U30C, C33U, C35A
B50: consensus (structured_RNA)
RNA: B1 RNA with C33U, G37A, A38G
B51: consensus (structured_RNA)
RNA: B1 RNA with C28U, U29C, U30C, A38G, G39A
B52: consensus (structured_RNA)
RNA: B1 RNA with U29C, U30C, C35U, A38G
B53: consensus (structured_RNA)
RNA: B1 RNA with C35A, G37A
B54: consensus (structured_RNA)
RNA: B1 RNA with C28U, U29C, C35U, A38G, G39A

This data set has as its target GST-SBP-SLBP (stem-loop binding protein) (Homo sapiens, UniProt Q14493 1-270). Briefly: targeted RNA Bind-n-Seq; RBNS binding buffer: 25 mM Tris pH 7.5, 150 mM KCl, 3 mM MgCl2, 0.1% Tween, 0.5 mg/mL BSA, 1 mM DTT; 27 nM protein, 750 pM RNA pool; temperature not stated; high values mean tight binding. The note with it: protein: recombinant; tags: N-terminal GST and SBP (pGEX6P1-SBP). An outline of the steps:
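The GST-SBP-tagged protein was expressed in Rosetta(DE3) pLysS E. coli, glutathione-purified and incubated at 27 nM with 750 pM of a designed, T7-transcribed RNA oligo pool in RBNS binding buffer. Bound RNA was reverse transcribed with a 10-nucleotide barcoded primer, PCR-amplified and sequenced on a MiSeq with 200-cycle paired-end reads. Reads were joined with FLASH, aligned with HISAT2 and collapsed by barcode. The binding signal is the DEseq log2 fold change of read counts per sequence.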
Consider B1, for which the binding signal came out at 0.979 ± 0.14 log2 fold change. With B2, the binding signal is 3.48 ± 0.162 log2 fold change. In the case of B3, the binding signal came out at 3.74 ± 0.124 log2 fold change. As for B4, the binding signal is 3.19 ± 0.123 log2 fold change.

With B5, the binding signal turned out to be 3.13 ± 0.132 log2 fold change. B6: the binding signal amounted to 3.55 ± 0.131 log2 fold change.

Regarding B7, the binding signal amounted to 3.06 ± 0.144 log2 fold change. For B8, the binding signal was found to be 3.18 ± 0.125 log2 fold change. On to B9, for which the binding signal was 3.7 ± 0.124 log2 fold change. The figure for B10 is 3.44 ± 0.114 log2 fold change. The figure for B11 is 0.759 ± 0.157 log2 fold change; for B12 it is 3.73 ± 0.129 log2 fold change; for B13 it is 3.37 ± 0.174 log2 fold change.

Turning to B14, the binding signal was found to be 3.23 ± 0.14 log2 fold change. In the case of B15 it was 3.2 ± 0.135 log2 fold change.

Consider B16, for which the binding signal was found to be 3.5 ± 0.119 log2 fold change. The figure for B17 is 3.26 ± 0.128 log2 fold change; for B18 it is 3.33 ± 0.12 log2 fold change.

For B19, the binding signal came out at 3.73 ± 0.129 log2 fold change.

For B20, the binding signal stood at 3.2 ± 0.125 log2 fold change.

Regarding B21, the binding signal worked out at 0.724 ± 0.177 log2 fold change. The figure for B22 is 3.24 ± 0.124 log2 fold change; for B23 it is 3.34 ± 0.155 log2 fold change. In the case of B24 it was 0.928 ± 0.165 log2 fold change; in that of B25, 3.27 ± 0.13 log2 fold change; in that of B26, 0.933 ± 0.168 log2 fold change. Consider B27, for which the binding signal turned out to be 3.37 ± 0.117 log2 fold change. As for B28, the binding signal worked out at 3.14 ± 0.132 log2 fold change. Regarding B29, the binding signal was determined as 3.16 ± 0.137 log2 fold change. B30: the binding signal was determined as 3.11 ± 0.136 log2 fold change. As for B31, the binding signal was determined as 3.07 ± 0.12 log2 fold change. As to B32, the binding signal was 3.5 ± 0.113 log2 fold change. Take B33: the binding signal is 3.52 ± 0.16 log2 fold change. On to B34, for which the binding signal was determined as 3.48 ± 0.135 log2 fold change. Regarding B35, the binding signal was determined as 0.854 ± 0.146 log2 fold change.

With B36, the binding signal is 3.16 ± 0.131 log2 fold change.

As to B37, the binding signal came to 3.17 ± 0.142 log2 fold change. In the case of B38 it was 0.796 ± 0.151 log2 fold change.

With B39, the binding signal was determined as 3.19 ± 0.133 log2 fold change. For B40, the binding signal is 0.935 ± 0.161 log2 fold change.

As to B41, the binding signal was found to be 3.32 ± 0.133 log2 fold change. For B42, the binding signal was 3.16 ± 0.18 log2 fold change. In the case of B43, the binding signal was found to be 3.26 ± 0.121 log2 fold change. In the case of B44 it was 3.04 ± 0.144 log2 fold change; in that of B45, 3.2 ± 0.118 log2 fold change. Turning to B46, the binding signal came to 3.48 ± 0.133 log2 fold change. The figure for B47 is 0.623 ± 0.163 log2 fold change; for B48 it is 3.5 ± 0.12 log2 fold change.

Turning to B49, the binding signal turned out to be 3.5 ± 0.152 log2 fold change. The figure for B50 is 3.17 ± 0.125 log2 fold change; for B51 it is 3.44 ± 0.13 log2 fold change. As to B52, the binding signal worked out at 3.46 ± 0.16 log2 fold change. On to B53, for which the binding signal stood at 3.29 ± 0.116 log2 fold change. Take B54: the binding signal came to 0.816 ± 0.166 log2 fold change.
